Reference: US20220348651A1 (Novartis, published 2022)
Substitutions are numbered along the chain they refer to.

T1: human ENTPD2 expressed on cells (human, UniProt Q9Y5L3 1-495)
T1 sequence: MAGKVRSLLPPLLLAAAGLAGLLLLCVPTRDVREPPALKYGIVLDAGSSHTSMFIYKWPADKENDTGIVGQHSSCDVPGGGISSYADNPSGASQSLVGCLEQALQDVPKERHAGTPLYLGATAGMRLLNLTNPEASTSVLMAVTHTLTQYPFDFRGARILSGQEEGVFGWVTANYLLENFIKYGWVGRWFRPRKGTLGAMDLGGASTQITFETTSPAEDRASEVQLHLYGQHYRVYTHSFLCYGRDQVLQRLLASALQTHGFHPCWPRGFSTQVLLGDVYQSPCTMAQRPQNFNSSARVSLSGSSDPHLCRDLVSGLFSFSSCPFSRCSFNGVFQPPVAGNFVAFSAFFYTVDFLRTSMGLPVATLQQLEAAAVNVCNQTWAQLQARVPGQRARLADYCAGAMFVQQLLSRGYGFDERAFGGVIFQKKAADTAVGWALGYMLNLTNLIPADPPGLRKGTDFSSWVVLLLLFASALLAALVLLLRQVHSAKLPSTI

T2: cyno ENTPD2 expressed on NIH/3T3 cells (cynomolgus macaque, UniProt Q9Y5L3 1-495 (human entry))
T2 chain: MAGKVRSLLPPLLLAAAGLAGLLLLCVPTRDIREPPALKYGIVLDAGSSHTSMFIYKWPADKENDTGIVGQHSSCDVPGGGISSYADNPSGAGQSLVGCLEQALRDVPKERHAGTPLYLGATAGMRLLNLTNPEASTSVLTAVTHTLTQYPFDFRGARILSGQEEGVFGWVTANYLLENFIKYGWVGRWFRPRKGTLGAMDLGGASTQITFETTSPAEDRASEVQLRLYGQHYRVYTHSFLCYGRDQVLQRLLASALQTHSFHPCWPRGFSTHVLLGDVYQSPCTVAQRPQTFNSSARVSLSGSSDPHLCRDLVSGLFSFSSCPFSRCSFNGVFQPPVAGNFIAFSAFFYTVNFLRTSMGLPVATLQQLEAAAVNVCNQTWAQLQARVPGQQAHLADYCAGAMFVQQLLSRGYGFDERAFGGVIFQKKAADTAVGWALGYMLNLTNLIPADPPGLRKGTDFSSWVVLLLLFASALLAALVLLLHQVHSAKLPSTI

T3: recombinant human ENTPD2 (residues 29-462, Y350A mutant) used in crystallographic studies (human, UniProt Q9Y5L3 29-462, N-linked glycosylation observed at Asn129, Asn294, Asn378 and Asn443)
T3 construct: also called hENTPD2 Y350A; human ENTPD2 (Y350A mutant) ectodomain
T3 sequence: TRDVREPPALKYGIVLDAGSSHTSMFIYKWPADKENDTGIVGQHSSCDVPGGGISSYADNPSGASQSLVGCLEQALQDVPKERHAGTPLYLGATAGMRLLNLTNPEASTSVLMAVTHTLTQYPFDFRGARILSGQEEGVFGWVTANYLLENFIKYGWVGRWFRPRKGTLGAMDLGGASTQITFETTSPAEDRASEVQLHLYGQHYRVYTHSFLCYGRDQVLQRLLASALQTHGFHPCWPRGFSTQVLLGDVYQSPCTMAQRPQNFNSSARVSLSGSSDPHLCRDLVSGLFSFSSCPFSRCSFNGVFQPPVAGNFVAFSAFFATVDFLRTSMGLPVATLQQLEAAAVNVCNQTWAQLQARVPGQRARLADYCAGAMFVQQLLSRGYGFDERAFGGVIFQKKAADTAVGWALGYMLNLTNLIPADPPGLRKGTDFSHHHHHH

T4: mouse ENTPD2 expressed on cells (mouse, UniProt O55026 1-495)
T4 construct: also called NIH3T3-mouse ENTPD2 engineered cell line; mouse ENTPD2-engineered 4T1 clone 45
T4 sequence: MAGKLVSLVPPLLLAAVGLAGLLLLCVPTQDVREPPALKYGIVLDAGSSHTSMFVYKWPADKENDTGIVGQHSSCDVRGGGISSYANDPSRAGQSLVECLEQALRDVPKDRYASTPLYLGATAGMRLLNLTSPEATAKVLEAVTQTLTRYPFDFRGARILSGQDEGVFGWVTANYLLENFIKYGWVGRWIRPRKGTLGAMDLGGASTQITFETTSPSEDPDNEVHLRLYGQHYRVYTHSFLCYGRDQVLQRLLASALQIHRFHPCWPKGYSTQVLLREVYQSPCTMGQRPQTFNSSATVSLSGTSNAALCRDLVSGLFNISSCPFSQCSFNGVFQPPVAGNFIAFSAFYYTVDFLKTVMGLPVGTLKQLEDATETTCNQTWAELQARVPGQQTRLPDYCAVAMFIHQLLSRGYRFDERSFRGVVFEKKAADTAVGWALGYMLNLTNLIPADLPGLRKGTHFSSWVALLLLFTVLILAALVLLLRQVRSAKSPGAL

B1: ANTI-HUMAN ENTPD2 MAB17 (antibody, human IgG1, kappa, V domains shown)
VH: EVQLQQFGAELVKPGASVKISCKASGYTFTDYNMDWVKQSHGKSLEWIGDINPKYDISTYNQQFKGKATLTVDKSSSTAYMELRSLTSEDTAVYYCARRGFFLYYGINYYYFDVWGAGTTVTVSS
VL: QIVLTQSPAIMSASLGEEITLTCSASSSVSYIHWYQQKSGTSPTLLIYSTSNLASGVPSRFSGSGSGTFYSLTISSVEAEDAADYYCHQWSSYPWTFGGGTKLEIKR
B2: ANTI-HUMAN ENTPD2 FAB23 (Fab, V domains shown)
VH: B1 VH
VL: B1 VL
modifications: N-terminal residue observed and modeled as pyroglutamate in the crystal structure
notes: Fab with the variable regions of mAb17; also called anti-hENTPD2 FAb23; anti-human ENTPD2 MAB17 Fab
B3: ANTI-HUMAN ENTPD2 MAB20 (antibody, human IgG1, kappa, V domains shown)
VH: B1 VH with K54N, S58T, T59S, Q63K, I107S, N108S
VL: B1 VL with I32M, T44K
B4: ANTI-HUMAN ENTPD2 MAB19 (antibody, human IgG1, kappa, V domains shown)
VH: B1 VH with A16T, K54N, S58T, Q63R, L103P, I107N, N108S
VL: B1 VL with A9T, I32M, T44K, S92N
B5: ANTI-HUMAN ENTPD2 MAB21 (antibody, human IgG1, kappa, V domains shown)
VH: EVQLQQSGPELVKPGASVKISCKTSGYTFTEYTMHWVKQSHGKSLEWIGGINPNNGITTYNQKFKGKATLTVDKSSSTAYMDLRSLTSEGSAVYYCARRGFPIYYYGTSLYYFDYWGQGTTLTVSS
VL: B1 VL with I32M, K38R, T44K, S49T
B6: ANTI-HUMAN ENTPD2 MAB11 (antibody, human IgG1, kappa, V domains shown)
VH: EVQLLESGGGLVQSGGSLRLSCAASGFTFSSYAMSWVRQAPGKGLEWVSVISGSGGSTYYADSVKGRFTISRDNSKNTLYLQMNSLRAEDTAVYYCARGDDYGDDYYYYGMDVWGQGTTVTVSS
VL: not shown
B7: ANTI-HUMAN ENTPD2 MAB12 (antibody, human IgG1, kappa, V domains shown)
VH: EVLLVESGGGLVQPGGSLRLSCAASGFTFNSCSMNWVRQAPGKGLEWVSYISSSSSTIYYADSVKGRFTISRDNAKNSLYLQMNSLKDEDTAVYYCARDQGNWNYDDYYNGLDVWGQGTTVTVSS
VL: not shown
B8: ANTI-HUMAN ENTPD2 MAB16 (antibody, human IgG1, kappa, V domains shown)
VH: DIQLQESGPGLVKPSQSLSLTCSVTGYSITSGYYWNWIRQFPGNKLEWMGYISYDGDNNYNPSLKNRISITRDTSKNQFFLKLSSVTTEDTATYYCAGGYYRYGLSYYYVMDYWGQGTSVTVSS
VL: DTVLTQSPASLAVSLGQRATISCKASQSVDYDGNSYMNWYQQKPGQPPKLLIYAASNLESGIPARFSGSGSGTDFTLNIHPVEEEDAATYYCQQSNEDPPTFGGGTKLEIKR
B9: ANTI-HUMAN ENTPD2 FAB22 (Fab, V domains shown)
VH: B8 VH with D1E, I2V, Q3K, Q5E, E6Q, G50S, S124A
VL: B8 VL with T2I, V3K, L4M, I110L
notes: Fab with the CDRs of mAb16; human CH1 and kappa constant regions; also called anti-hENTPD2 FAb22
B10: ANTI-HUMAN ENTPD2 MAB18 (antibody, human IgG1, kappa, V domains shown)
VH: DIQLQESGPGLVKPSQSLSLTCSVTGYSITSGYYWNWIRQFPGNKLEWMGYISYDGDNNYNPSLKNRISITRDTSKNQFFLKLSSVTTEDTATYYCAGGYYRYGLGSYSGSYYYVMDYWGQGTSVTVSS
VL: B8 VL
B11: ANTI-mouse ENTPD2 MAB13 (antibody, mouse IgG2a, kappa, V domains shown)
VH: QVQLVQSGAELKQPGQSVKISCKASGYTFTHYGMNWVKQAPGQGLKWMGWINTDTGNPTYADDFKGRFVFSLDTSVSTAYLQISNLKNEDTATYYCVRYGTLYSGYGFFFDSWGQGTLVTVSS
VL: DIMMTQSPSSLSVSAGEKATITCKSSQSLFNSNTNKNYLNWYLQKPGQSPKLLFYYASTRHTGVPDRFIGSGSGTDFTLTITSVQDEDLADYYCQQWYSYPWTFGPGTKLEIKR
notes: mouse ENTPD2 selective antibody; also called Anti-ENTPD2 mAb13
B12: ANTI-mouse ENTPD2 MAB14 (antibody, mouse IgG2a, kappa, V domains shown)
VH: B11 VH with T30W
VL: B11 VL
B13: ANTI-mouse ENTPD2 MAB15 (antibody, mouse IgG2a, kappa, V domains shown)
VH: B11 VH with T30H
VL: B11 VL

Assays:
[1] = biological target: T1, human ENTPD2 expressed on cells; assay: cell-based or functional assay
[2] = biological target: T2, cyno ENTPD2 expressed on NIH/3T3 cells; assay: cell-based or functional assay
[3] = biological target: recombinant human ENTPD2 extracellular domain (residues 29-462) with C-terminal Avi-His6 tag (human, UniProt Q9Y5L3 29-462, biotinylated on the AviTag in the epitope binning assay); assay: cell-based or functional assay
[4] = biological target: T3, recombinant human ENTPD2 (residues …); assay: X-ray crystal structure of the complex
Method: Structure determination by molecular replacement was performed using the previously determined human ENTPD2 coordinates and Fab coordinates from PDB code 3QRG.

[5] = biological target: T4, mouse ENTPD2 expressed on cells; assay: flow cytometry (FACS)
[6] = biological target: T4, mouse ENTPD2 expressed on cells; assay: cell-based or functional assay

Binder | % inhibition, Human ENTPD2 NIH/3T3 Assay [1] [%] | IC50, Human ENTPD2 NIH/3T3 Assay [1] [nM] | IC50, ENTPD2 Biochemical Assay at 1 uM ATP [3] [nM] | further results
B1 | 98 | 0.6 | 0.27 | % inhibition, RKO Assay [1]: 96%; IC50, RKO Assay [1]: 0.5 nM; % inhibition, Cyno ENTPD2 NIH/3T3 Assay [2]: 91%; IC50, Cyno ENTPD2 NIH/3T3 Assay [2]: 1 nM
B2 |  |  |  | buried solvent-accessible surface [4]: ~17500 Å2
B3 |  |  | 17.5 | 
B4 |  |  | 4.09 | 
B5 |  |  | 0.87 | 
B6 | 55 | 1.5 |  | 
B7 | 68 | 26.6 |  | 
B8 | 30 | > 133 | 77.3 | % inhibition, Cyno ENTPD2 NIH/3T3 Assay [2]: 5%; IC50, Cyno ENTPD2 NIH/3T3 Assay [2]: > 133 nM
B9 |  |  |  | buried solvent-accessible surface [4]: ~16700 Å2
B10 | 88 | 0.4 |  | % inhibition, Cyno ENTPD2 NIH/3T3 Assay [2]: 68%; IC50, Cyno ENTPD2 NIH/3T3 Assay [2]: 20 nM
B11 |  |  |  | EC50 [5]: 3 to 4 nM; ENTPD2 Functional Assay IC50 (mouse ENTPD2 NIH/3T3 cells) [6]: 2.8 nM
B12 |  |  |  | ENTPD2 Functional Assay IC50 (mouse ENTPD2 NIH/3T3 cells) [6]: 4.6 nM
B13 |  |  |  | ENTPD2 Functional Assay IC50 (mouse ENTPD2 NIH/3T3 cells) [6]: 5.9 nM
